Target: T1, HIC2 ZF2-5 (Homo sapiens, UniProt Q96JB3 503-615)
T1 sequence: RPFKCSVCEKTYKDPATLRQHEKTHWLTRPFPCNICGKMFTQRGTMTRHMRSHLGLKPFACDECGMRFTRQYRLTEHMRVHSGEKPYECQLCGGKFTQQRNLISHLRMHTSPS
Experiment: X-ray crystallography

B1: +55 enhancer HIC2 motif-2/GATA 16-mer (dsDNA)
DNA 1: AGATAATGCCAACAGT
DNA 2: ACTGTTGGCATTATCT
binding result: binds
